Measured values from article PMC10580930.

Legend:
[1] = system: C[C@@H](O)[C@H]1C(=O)N2C(C(=O)O)=C(SCCN=CN)C[C@H]12; experiment: purified protein; conditions: phosphate-buffered solution (1x), 50 µM ZnSO4, room temperature
[2] = system: C[C@@H](O)[C@H]1C(=O)N2C(C(=O)O)=C(S[C@@H]3CN[C@H](C(=O)N(C)C)C3)[C@H](C)[C@H]12; experiment: purified protein; conditions: phosphate-buffered solution (1x), 50 µM ZnSO4, room temperature

VIM-2 (Pseudomonas aeruginosa)
Km [1]: 10.31 µM
kcat [1]: 11.1 s⁻¹
kcat/Km [1]: 1.1e+06 M⁻¹ s⁻¹
Km [2]: 5.37 µM
kcat [2]: 2.1 s⁻¹
kcat/Km [2]: 400000 M⁻¹ s⁻¹
